Assay [1] has as its system Du145 and PC3+STAT3 human prostate cancer cells. The assay can be described thus: OSM-induced detachment of human prostate cancer cells. Type of assay: cell-based. The following applies: OSM 5 ng/mL, inhibitors 5 μM, 5 days. As for the experimental part:
FIGS. 15A and 15B. […] Detachment for FIG. 15A) Du145 and 15B) PC3+STAT3 human prostate cancer cells. 10,000 cells were plated in a 24-well plate in 1 mL complete media that was pre-incubated with OSM (5 ng/mL) and inhibitors (5 μM) for 1 hour. After 5 days, the detached cells were stained with Trypan Blue and counted using a hemocytometer.

For assay [2], the system named is pSTAT3, pJNK, pERK, and pAKT signaling. The assay can be described thus: Western blot analysis of downstream OSM signaling in MDA-MB-231 cell lysates. Format: cell-based, human. As to conditions: MDA-MB-231 cells; 5 μM. For orientation: Immunoblotting shows a protein as a band on a membrane.
The test system of assay [3] is IL-6. The assay can be described thus: IL-6 ELISA on conditioned media of OSM treated 4T1.2 cells. Format: cell-based, mouse. As to conditions: rmOSM 25 ηg/ml, 48 hours. As for the experimental part: (§1) 1×10^5T47D, MDA-MB-231, MCF7, MDA-MB-468, or 4T1.2 cells were plated in multi-well plates in the presence or absence of OSM for […]. Conditioned media was collected, diluted 1:5 and an IL-6 ELISA was performed as according to the manufacturer's recommended instructions.
(§2) OSM induced IL-6 expression was studied on various cell lines including two ER+ cell lines, T47D and MCF7, and three ER− cell lines MDA-MB-468, MDA-MB-231, and 4T1.2 cells. rhOSM was used for the four human cell lines at a concentration of 25 ηg/ml while rmOSM was used for the 4T1.2 cells at a concentration of 25 ηg/ml. The cells were incubated in OSM for a total of 48 hours and IL-6 levels in the conditioned media was assessed by ELISA. […] In the 4T1.2 mouse mammary cancer cells, OSM induced IL-6 by approximately 4-fold (FIG. 7). To test if OSM induced IL-6 in vivo, tumors from the MDA-MB-231 injected mice were lysed, homogenized, and the IL-6 levels were analyzed by ELISA.
(In general: An ELISA detects its analyte on a solid surface through an enzyme-linked reagent.)

The subject of assay [4] is OSM-induced phosphorylation of STAT3 on Tyr-705 (pSTAT3). The assay can be described thus: pSTAT3 ELISA after OSM stimulation. As to conditions: human breast cancer cells; OSM 25 ng/ml, 30 minutes. Format: cell-based. An excerpt: FIGS. 16A-16D. […] This method can be used for in vitro screening of lead compounds that inhibit OSM signaling. […] Cell lysates were collected and pSTAT3 levels were measure by ELISA.
Next an enzyme-linked immunosorbent assay (ELISA) for analyzing initial OSM-induced phosphorylation of STAT3 on Tyr-705 (pSTAT3) will be employed for the initial screen. […] The ability of the top 100 OSM-SMIs to inhibit OSM-OSMR interactions that result in expression of pSTAT3 will be evaluated by this assay and cells will be pretreated with the OSM-SMIs for 2 hours prior to the addition of OSM. As positive controls, neutralizing antibodies to human OSM or human gp130 will establish baseline pSTAT3 levels in the ELISA assay (FIG. 16A).
Actual physiological levels of OSM may be much lower than the nanogram levels used here. […] Therefore, testing inhibitors using lower concentrations of OSM may better allow for the detection of Effects at physiologically relevant concentrations.
Additionally, a functional dose response curve for OSM-SMI activity will be generated through 2 log units of concentration of compounds and used to establish the dynamic range of OSM-SMI activity. This will be used to determine the half maximal inhibitory concentration (IC50) as well as the minimum effective concentration (Ceff) for each compound.

Assay [5] relates to PC-3 prostate cancer cell line. The assay can be described thus: Proliferation and detachment of PC-3 cells treated with OSM. Type of assay: cell-based, human. The following applies: OSM 17.5 ng/ml. As for the experimental part:
(§3) Prostate cancer cell lines DU-145 and PC-3 were plated in triplicate in complete RPMI media at a cell density of 1,000 cells/ml and allowed to adhere overnight. Cells were treated the next day with OSM at a concentration of 17.5 ηg/ml (untreated cells were used as a control). Both detached cells and total cells were counted on days 1, 3, 5, 7, and 9. Detached cells were collected, stained with trypan blue and viable cells were counted using a hemocytometer. Adherent cells were trypsinized, stained with trypan blue and viable cells were counted on a hemocytometer. To look at the effects of OSM on prostate cancer cell proliferation, the number of viable detached cells and adherent cells were added together to determine the total number of cells.

Assay [6] has as its system DU-145 prostate cancer cell line. The assay can be described thus: Proliferation, detachment and morphology of DU-145 cells treated with OSM. As to conditions: OSM 17.5 ng/ml. Format: cell-based, human. As for the experimental part:
as §3
The Epithelial-Mesenchymal Transition (EMT) was also measured. During the proliferation and detachment assays detailed above, micrographs of the DU-145 cells were taken at day 5 before cells were collected and counted.

In assay [7] the test system is PC-3 prostate cancer cell line. The assay can be described thus: Matrigel invasion assay, PC-3. Type of assay: cell-based, human. The procedure: (§4) FIG. 14. Invasive Potential for the DU-145 and PC-3 Prostate Cancer Cell Lines.
(§5) Invasion potential was also measured. OSM increased the invasion potential of both DU-145 and PC-3 cell lines (FIG. 14).

The test system of assay [8] is DU-145 prostate cancer cell line. The assay can be described thus: Matrigel invasion assay, DU-145. Type of assay: cell-based, human. As for the experimental part: as §4, §5
Assay [9] has as its system MDA-MB-231 D3H2LN luc2 cells. The assay can be described thus: MDA-MB-231 D3H2LN luc2 orthotopic xenograft with peri-tumoral OSM injections. Type of assay: in vivo, mouse. The procedure: For xenograft models, six-week-old female nude mice were obtained from the National Cancer Institute's Animal Production Facility (Frederick, Md.). Non-surgical orthotopic injections were performed using 2.0×10^6 cells diluted in 50 μL of PBS containing 10% medium. When the tumors became palpable, mice were randomized into groups and began receiving per-tumoral injections. For peri-tumoral injections, either 50 μL PBS or 1 μg recombinant full length human OSM (Peprotech) diluted in 50 μL PBS was injected into the area surrounding the tumor three times per week until the end point of the experiment.
Detection of human circulating tumor cells (CTCs) in mouse blood was performed. Human DNA standard curve was prepared by adding a specified number of human MDA-MB-231 cells into mouse blood and the DNA isolated for use in the qPCR reactions. Whole DNA was isolated from 100 μl of whole blood collected from mice at the end of the experiment. DNA was isolated using DNeasy Blood & Tissue kit (Quiagen Cat#) using the manufacturer's standard instructions. DNA concentrations were normalized between each sample and 4.5 ng of DNA was added to each 25 μl qPCR reaction. qPCR reaction mixture was obtained from the GoTaq qPCR Master Mix (Promega, Cat#TM318, Madison Wis.), and reaction mixtures were prepared in accordance with manufacturer recommendations. 0.125 μl of 100 μM primers for human Alu fragment, and for GAPDH was added to each reaction. The primer sequences used for Alu was (s:[…] a:[…]) and for
GAPDH the sequence used was (s: […]; a: […]). The qPCR reaction was done with SYBR green chemistry using a CXR reference dye and ran on an Applied Biosystems AB7300 real-time thermocycler. Reaction conditions were: 50° C. for 2 minutes, 95° C. for 3 minutes and 40 cycles of: (95° C. 00:15, 60° C. 00:30, 72° C. 00:30) and fluorescence measurements were taken during the annealing temperature stage (60° C.). cT values were determined and the final results were normalized to GAPDH signal levels.
BLI of live animals was initiated at 13 days after cell line injection and performed weekly. Three to five mice were imaged at one time. Ex vivo organs were also imaged using BLI. Both procedures follow our previously described protocols.
To determine the influence of OSM in human breast cancer, we used a xenograft model. MDA-MB-231 D3H2LN luc2 cells were injected into the fourth mammary fat pads of female nude mice. After the tumors were palpable, OSM (1 μg) or PBS were injected peri-tumorally 3 times per week (FIG. 6A), and mice were monitored until the end-point criteria were met. Tumor size was measured using calipers three times per week for the duration of the experiment and expressed as tumor volume (mm^3)=[…]. […] Next, BLI intensity of the cells was assessed in vivo. The BLI intensities of the tumors from both groups were similar with variations in intensities in both groups (FIG. 6C). A few mice in both groups had lower BLI intensities due to tumor necrosis.
Ex vivo analysis of the lungs was performed. […] Next, quantification of the BLI intensities of the lungs was performed.
Our studies on detecting CTCs involve the usage of the Alu transposon repeats for detecting human cells in mouse blood, and with colony forming assays that detects all transformed cells in the blood. […] In order to detect circulating tumor cells in the mouse circulatory system, DNA was isolated from mouse blood, and human alu fragment concentrations were determined in the blood by qPCR. […]

In assay [10] the test system is IL-6. The assay can be described thus: IL-6 ELISA on conditioned media of OSM treated human breast cancer cell lines. Type of assay: cell-based. As to conditions: OSM 25 ηg/ml, 48 hours. The procedure:
as §1, §2

Entries after “also recorded” stand apart in the source; their conditions may differ.

Turning to `O=[N+]([O-])c1c(/C=N/Nc2ccccc2)oc(-c2ccc3c(c2)OCO3)c1-c1ccc2c(c1)OCO2` [OSM-SMI-10], the OSM-induced detachment entry in assay [1] is listed as “decrease OSM-induced detachment”. In addition, the “inhibition of OSM downstream signaling” value in assay [2] is “inhibited signaling to various extents”.
Regarding `Cc1nc(C(N)=S)sc1C(=O)CC(=O)C(=O)Nc1nc2ccccc2[nH]1` [OSM-SMI-11], the OSM-induced detachment entry in assay [1] is given as “decrease OSM-induced detachment”. Also, the “inhibition of OSM downstream signaling” value in assay [2] is listed as “inhibited signaling to various extents”.

B1: OSM: Oncostatin M, IL-6 family cytokine; recombinant human OSM used as stimulus on cells and by peri-tumoral injection (protein, listed as Homo sapiens)
chain: MGVLLTQRTLLSLVLALLFPSMASMAAIGSCSKEYRVLLGQLQKQTDLMQDTSRLLDPYIRIQGLDVPKLREHCRERPGAFPSEETLRGLGRRGFLQTLNATLGCVLHRLADLEQRLPKAQDLERSGLNIEDLEKLQMARPNILGLRNNIYCMAQLLDNSDTAEPTKAGRGASQPPTPTPASDAFQRKLEGCRFLHGYHRFMHSVGRVFSKWGESPNRSRRHSPHQALRKGVRRTRPSRKGKRLMTRGQLPR
Regarding B1, the “IL-6 induction by OSM” value in the assay on IL-6 [3] is 4-5 fold; with IL-6 [10] (MCF7 cells (ER+)), “did not change”; with IL-6 [10] (MCF7 cells (ER+), listed as rhOSM) it was “did not induce IL-6”; in the assay with IL-6 [10] (MDA-MB-231 cells), 4-5 fold; in the assay with IL-6 [10] (MDA-MB-231 cells, listed as rhOSM), “approximately 4 fold”; in the assay with IL-6 [10] (MDA-MB-468 cells), 4-5 fold. Further, the “IL-6 induction by OSM” value is “approximately 5 fold” in the assay with IL-6 [10] (MDA-MB-468 cells, listed as rhOSM); “did not change” with IL-6 [10] (T47D cells (ER+)); “did not induce IL-6” with IL-6 [10] (T47D cells (ER+), listed as rhOSM). Besides, in [4], the “induction of pSTAT3 by OSM” value was “induced pSTAT3; also recorded: induce pSTAT3 expression”. Moreover, the detachment entry is “not and did not show increased detachment” in [5]; “significantly increased; also recorded: increased detachment” in [6] (5 days, versus untreated cells). In addition, the proliferation result was “not and did not show increased proliferation” in [5]; “significantly increased; also recorded: increased proliferation” in assay [6] (5 days, versus untreated cells). The “morphology (EMT)” value in [6] (day 5) was “more mesenchymal morphology; also recorded: mesenchymal orphology characteristic of having undergone EMT”. Besides, the invasion potential result in [7] (OSM 17.5 ng/ml, 24 hours) was “increased invasion potential”; in [8] (OSM 17.5 ng/ml, 24 hours) it was “increased invasion potential”. The “treated cells showing an invasive potential” value is listed as 21% in assay [7] (OSM treated PC-3 cells) and “Twenty three” in assay [8] (OSM treated DU-145 cells). In assay [7] (PC-3 cells pretreated with OSM for 72 hours), the “increase in invasive potential versus untreated” value is on record as 4 fold. In addition, the “metastatic volume within the lungs” value in assay [9] (ex vivo analysis, peri-tumoral OSM versus PBS) is given as “larger metastatic volume”. Further, the “BLI intensities of the lungs, OSM injected group higher than PBS injected group” value in assay [9] (ex vivo lungs, orders of magnitude) is on record as 10^2. The “tumor volume versus PBS group” value in assay [9] (female nude mice, OSM 1 μg peri-tumorally 3 times per week) is given as “did not differ”. For the same molecule, in assay [9] (female nude mice, peri-tumoral OSM), the “ex vivo lung BLI intensity versus PBS injections” value was determined as 200 fold. The “increase in number of circulating tumor cells per 100 μl of mouse blood” value in assay [9] (human Alu qPCR, versus animals without OSM injections) was found to be 3.5 fold.

B2: rmOSM: recombinant mouse OSM used for the 4T1.2 cells (protein, UniProt P53347 25-206, looked up)
Oncostatin-M: NRGCSNSSSQLLSQLQNQANLTGNTESLLEPYIRLQNLNTPDLRAACTQHSVAFPSEDTLRQLSKPHFLSTVYTTLDRVLYQLDALRQKFLKTPAFPKLDSARHNILGIRNNVFCMARLLNHSLEIPEPTQTDSGASRSTTTPDVFNTKIGSCGFLWGYHRFMGSVGRVFREWDDGSTRSRR
Turning to B2, the “IL-6 induction by OSM” value in the assay with IL-6 [3] is “approximately 4 fold”.
